The source of these data is US20200109197A1.

In this test the target is recombinant anti-human CD3 antibody with TEV cleavage site in the upper hinge region of mouse IgG1 (mouse) [IgG part: P01868]. The test can be described thus: cell-based or functional assay.

“AcTEV™ Protease (from UniProt P04517 2038-2279) (enzyme)”: the kappa-positive faction of beads after one hour incubation with the protease, 37° C. is 7% and the kappa-positive faction of beads after one hour incubation with the protease, room temperature is 19%.
